Experimental data taken from article PMC6044767.
Several values for one entry are separate records, joined by “and”; a condition that tells them apart may be missing. Equal values may be shown once.

Tests used:
[1] = target: native Escherichia coli L-asparaginase II (Kidrolase) (E. coli) (UniProt P00805); assay: native gel or EMSA
[2] = target: native Escherichia coli L-asparaginase II (Kidrolase) (E. coli) (UniProt P00805); assay: native gel or EMSA; remark: listed apart in the source
[3] = target: native Escherichia coli L-asparaginase II (Kidrolase) (E. coli) (UniProt P00805)
[4] = target: native Escherichia coli L-asparaginase II (Kidrolase) (E. coli) (UniProt P00805); assay: SEC
[5] = target: native Escherichia coli L-asparaginase II (Kidrolase) (E. coli) (UniProt P00805); remark: listed apart in the source
[6] = target: T1, N21-EcAII (E. coli K12), P00805; assay: SEC; details: remark: other sources report otherwise
T1 chain: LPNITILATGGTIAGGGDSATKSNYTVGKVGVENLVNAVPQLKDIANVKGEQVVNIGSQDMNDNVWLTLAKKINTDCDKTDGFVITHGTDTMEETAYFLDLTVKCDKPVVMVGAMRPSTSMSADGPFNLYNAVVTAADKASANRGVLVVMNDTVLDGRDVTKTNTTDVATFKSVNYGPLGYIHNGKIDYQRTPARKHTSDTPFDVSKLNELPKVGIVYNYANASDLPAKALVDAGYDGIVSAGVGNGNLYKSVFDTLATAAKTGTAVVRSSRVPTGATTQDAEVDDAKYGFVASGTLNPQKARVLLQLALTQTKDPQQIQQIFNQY

[7] = target: T1, N21-EcAII (E. coli K12), P00805; assay: SEC; details: remark: other sources report otherwise
[8] = target: T2, N26-EcAII (E. coli K12), P00805; assay: native gel or EMSA; details: remark: other sources report otherwise
T2 chain: T1 chain

[9] = target: T2, N26-EcAII (E. coli K12), P00805; assay: SEC; details: remark: other sources report otherwise
[10] = target: T2, N26-EcAII (E. coli K12), P00805; assay: SEC; details: remark: other sources report otherwise
[11] = target: T3, C8-EcAII (E. coli K12), P00805; assay: native gel or EMSA; details: remark: other sources report otherwise
T3 chain: T1 chain

[12] = target: T3, C8-EcAII (E. coli K12), P00805; assay: SEC; details: remark: other sources report otherwise
[13] = target: T3, C8-EcAII (E. coli K12), P00805; assay: SEC; details: remark: other sources report otherwise

Molecule: native Escherichia coli L-asparaginase II (Kidrolase) (from UniProt P00805 23-348) (enzyme)
- stoichiometry N [1]: 8 and 12 and 4
- stoichiometry N [2]: 4 and 8 and 12
- specific activity in solution (GDH-coupled assay) [3]: 118 U mg^–1
- stoichiometry N [4]: 4 and 8 and 12
- specific activity of EcAII immobilized on gold chips (GDH-coupled assay) [5]: 310 U mg^–1

B1: N21-EcAII, P00805 23-348 (enzyme)
chain: T1 chain
- stoichiometry N [6]: 4
- stoichiometry N [7]: 8 and 12 and 4

B2: N26-EcAII, P00805 23-348 (enzyme)
chain: T1 chain
- stoichiometry N [8]: 4
- stoichiometry N [9]: 4
- stoichiometry N [10]: 4

B3: C8-EcAII, P00805 23-348 (enzyme)
chain: T1 chain
- percent dissociated into monomer [11]: 50%
- stoichiometry N [11]: 4 and 8
- stoichiometry N [12]: 4
- stoichiometry N [13]: 4
